Test results from the DeepSol protein solubility set.

assay: soluble on expression in E. coli; label from the status in PepcDB or PDB records

Sequence	soluble on expression in E. coli
MSLSEAGHKFLAKLGKKRLRPGGKRATDWLIAEGGFSKEKRILEVACNRGTTAIELAQRFGCKITAVDMDAQALEVAKKSAGTAGVAHLISFERANAMKLPYQDASFDIVINEAMLTMQADQAKKKCVMEYLRVLKPGGLLLTHDVLLKEAKESIRQELSQAIHVNVGPLTQDGWEQVMIESGYCDVKALTGEMTLMKLSGMIYDEGLLGTLKICVNACKKENRKQFLTMYKMFAKNKQKLGFIAMASYKSSEGHHHHHH	soluble
MSLSGIINNREYRQKVLKEIILELHNGKSVDEVRKRFQELIKGVSTKEISEMEAQLIKEGMKVEEIQRLCDVHAAVFKGSIDQIHHPEKEEGHPVSVLKKENEAVKNYIQSHLTPNLEEIKKSDSHSTRLKLMENISMLFDLDKHYSRKENLIFPYLEKYGITAPPKVMWGVDDEIREALKECKEVINSANKTPNEITEKVESTLKRIEEMIFKEESILLPMCIDTFSEDEWLDIESESDEIGYCLISPSEKWKPKRENVEEKEKSKLANENSEGYIKFDTGILRVNELSAILDTLPLDITFVDKDGTVKYFSGGSERIFARTRAVIGRKVQNCHPPASVHIVEKVVEDLKSGKKDHEDFWLHMGELYVFIRYYAVKDNKGEFIGVLEVTQNIKEIQEITGEKRLIEEGHHHHHH	soluble
MSLSHYTVGELANHLGVTVRTLQYYDRKGLLTAERATESNRRYYNDDHIQQLQLIFLLKQFGCTLDEIKTLLYEDSDMQTLKAMLQLHKKKLETSIHDQTKALKHLNNVDQYISSHSSAPINHLSDIDKAVKQSTTLKSEGHHHHHH	not soluble
MSLSIPFDDSRGPYVLAMDIGSTASRGGLYDASGCPIKGTKQRESHEFTTGEGVSTIDADQVVSEITSVINGILNAADHHNIKDQIAAVALDSFASSLILVDGEGNALTPCITYADSRSAQYVEQLRAEIDEEAYHGRTGVCLHTSYHPSRLLWLKTEFEEEFNKAKYVMTIGEYVYFKLAGITGMATSIAAWSGILDAHTGELDLTILEHIGVDPALFGEIRNPDEPATDAKVVDKKWKHLEEIPWFHAIPDGWPSNIGPGAVDSKTVAVAAATSGAMRVILPSVPEQIPSGLWCYRVSRDQCIVGGALNDVGRAVTWLERTIIKPENLDEVLIREPLEGTPAVLPFFSGERSIGWAASAQATITNIQEQTGPEHLWRGVFEALALSYQRVWEHMGKAGAAPERVIASGRVSTDHPEFLAMLSDALDTPVIPLEMKRATLRGTALIVLEQLEPGGTRATPPFGTTHQPRFAHHYSKARELFDALYLKLVEGHHHHHH	soluble
MSLSLENFGNFLTLDEKHSFIKKYFKEFYTKDFKLFASKDKHYRTRAELSFYHENDTLFYAMFDPKSKKKYIIEYLDFADEKICAFMPRLLEYLRQDNKLKEKLFGVEFLTTKQELSITLLYHKNIEDIKSNLENLSNILHINLIARSKGKKLIFKTENLRQTLNIQDRKIFYEFNNDCFIQPNTAINEKMITWVCEILNTQKRMDLLELYCGYGNFTLALAPFFFKILATEISKSNINFALKNCELNNTTNIHFARLSSEELSLAIKKEREFFRLKDIRLDDFNFSHVLVDPPRAGLDKSVIDLIKKYGNIIYISCNPMTLKENLKELSLTHRVEEFALFDQFVNTPHLECGVFLSKVEGHHHHHH	soluble
MSLSLPLFYAPDIEQSDRLPDDEAGHILRVLRMQAGDRLRLTDGRGSFFDAVIETADRKSCYVSVCGQESWQKPWRDRITIAIAPTKQSERMEWMLEKLVEIGVDEVVFIESEHSERRRIKAERLERIAISAMKQSLKASFPVIRVNIPIQTVIADTPKAAVRLIAYVDEAVRAEITQGRGYPSDFYHVGQDVLILIGPEGDFSPSEVESALLAGFAPVSLGESRLRTETAGLVACQWIHTLQACYRIGEGHHHHHH	soluble
MSLSLQQIDQIISILNKQSKPYDWVMQEFAKVEELKNFDLDLETFELLGLGLTLNKDNIFTLKTRTTKIKDEIFCIVDIESTGGVSKGEILEIGAVKIQNSKEIGRFQSFVKVKEIPKNITELTGITYEMVENASSLAKVLSDFRLFLKDSIFVAHNVRFDYSFISKALNECGFGILLNRRICTIEFAQCCIESPKYKLEVLKEFLGVENMHHRALDDALAAAEIFKYCLGKLPYHIKTTEELINFTKTARIKEGHHHHHH	soluble
MSLSLYDSAHSLDGKSGWDTPVFSMKDSMDRNPMVTEAWEALCQSQVYFRGKPVGTIAAYDHASEEVLNYDQVFVRDFVPSALAFLMNGEPEIVKNFLLKTLHIQGQDKMIDKFKLGDGAMPASFKVLHNPIKKTDTIIADFGESAIGRVAPVDSGFWWIILLRAYTKSTGDHSLAERPECQKGMRLILSLCLSEGFDTFPTLLCADGCSMVDRRMGIYGYPIEIQALFFMALRSALSMLKHDSEGKEFMEKIVKRLHALSFHMRSYFWLDFQQLNDIYRYKTEEYSHTAVNKFNVIPDSIPDWIFDFMPLRGGYFVGNVSPARMDFRWFALGNCIAILSSLATPEQSMAIMDLIEARWEELVGEMPLKICYPAMESHEWGIVTGCDPKNTRWSYHNGGSWPVLLWLLTAASIKTGRPQIARRAIELAEARLLKDGWPEYYDGKSGRFIGKQARKSQTWSIAGYLVAKMMMDDPTHVGMISMEEEKHMKPPLRRSSSWT	soluble
MSLSMDTVNYRPSAYPAISLIEADYRQFAFERHYHLDIHIGLITQGVQRFYHQGAWHQVGQGGVVLMSPDELHDGHAHSNTGYQVQVFSIEPEWLQQTLEANQIEQVIGFEQLIVQDPTLFHSLQQLHHLLRQDNLSQLAKDCLPYQGFAPLLERYSYLKQPTVKPLGQHNLALLKEWVLSQLDQPIRLEQLAQLCQLSPTQFQRHFKAQTGLTPYAWLRRLRLEQAMKLLQSGKPGTDVAYQVGFYDQAHFSKAFKATYGLSPSLITRFSEGHHHHHH	not soluble
MSLSPAELHADSIVIDGLIIAKWNRELFEDMRKGGLTAANCTVSVWEGFQATVNNIAASNKLIRDNSDLVIPVRSTADIRKAKEQGKTGILYGFQNAHAFEDQIGYVEVFKQLGVGIVQMCYNTQNLVGTGCYERDGGLSGFGREIVAEMNRVGIMCDLSHVGSKTSEEVILESKKPVCYSHCLPSGLKEHPRNKSDEELKFIADHGGFVGVTMFAPFLKKGIDSTIDDYAEAIEYVMNIVGEDAIGIGTDFTQGHGHDFFEWLTHDKGYARRLTNFGKIVNPLGIRTVGEFPNLTETLLERGMPERVVRKVMGENWVRVLRDVEGHHHHHH	not soluble
MSLSQLDKTCVIIGASHAGVNCAFALRKEGWQGGIVLYDADPSLPYHRPPLSKAYLTSDAGIEKYLLKSAESYEKDNITLRMGIQVSAIDRTHKILTLNDGNTRSYDKLVIATGARPIIPPTKGIKTAKNLYPLRNAADVQNIRQALESNENKRVVIVGAGYIGLEIAASLKNRGAQVTVLEREDRVLARVTAPEMSAYFQQLHVSQGVEIVTNKNVVSIAPRNGFNTITCSDGTQYDADVIVMGVGIRVNLELAEDAGLNISNGICVNAAGQTNDEDIYAIGDCTLHYNPHYNRHIRLESVQNAVDQAKVTAAAICGKEVAYNAIPWFWSDQYDVKLQIVGLSSGYNELLIRREDDGRKFSSWYFKDDELLAVDAINNAKAYMIATKFIKERRKVDKIKLTDASVALSPLNLSAESHEGHHHHHH	soluble
MSLSQLFIVYLGGSAPKANIELHDVQFVIADNIEGTYEQLRQNWFGTVKDLHLDSYKAVKGADGYQISIQDKPQNSDKKLYFVNLGGYDASKLNELHEFALFVAADNTEAKEKAKQSLLKNSLHQHKDNLMEVDDCLELSKVDGKYIHLTPSDKEYDLKPYWFGYRVIGEGHHHHHH	soluble
MSLSQLVLILGDQLSPSIAALDGVDKKQDTIVLCEVMAEASYVGHHKKKIAFIFSAMRHFAEELRGEGYRVRYTRIDDADNAGSFTGEVKRAIDDLTPSRICVTEPGEWRVRSEMDGFAGAFGIQVDIRSDRRFLSSHGEFRNWAAGRKSLTMEYFYREMRRKTGLLMNGEQPVGGRWNFDAENRQPARPDLLRPKHPVFAPDKITKEVIDTVERLFPDNFGKLENFGFAEGHHHHHH	not soluble
MSLSSAPDIILHRGLFTTLDRSNPAASAVAIADGRFVAVGHDHDVMKLAGPSTKIVDLRGRRVLPGLIDNHLHIIRGGLNFNMELRWDGVRSLATAMDMLKRQVAVTPPPQWVRVVGGFTEHQFAEKRLPTIDELNAVAPDTPVFLLHLYDRAILNGAALRAVGYAKDTPEPPGGEIMRDTKGNPTGLLLAKPNANILYATLAKGPKLPFDYQVNSTRHFMRELNRLGVTGAIDAGGGFQNYPDDYAVIQKLSDEGLLTIRLAYNLFTQKPKGEKADFLNWTKTSKYKQGDDYFRHNGAGEMLVFSAADFEDFRVARPDMPAEMEGELEEVVRVLVQNKWPWRLHATYDETISRALDVFERVNQDIPLEGLHWFFDHAETISDQSIDRIAALGGGIAVQHRMAYQGEYFVERYGAGAAEATPPVKKIIDKGVKVSAGTDATRVASYNPWVSLSWLVTGRTVGGLRITPQRNCLDRETALRMWTENVTWFSNEEGNKGRIQVGQLADLVVPDRDYFSCSEAEIADTTSLLTMVGGRIVYGAGDFSKLESVTPPPAMPDWSPVRRFGGYAAWADDTAKTKDTSLAMKAMQMCGCANSCGVHGHDHAAAWSSRLPVSDLRSFWGALGCACWAVEGHHHHHH	not soluble
MSLSSAYDRKNLEKKNRELRELNDKIGDVAKTFETLQLELYNDLIKEFSKDLTSWNATIDPDNTIRFKEPDVLFDSGKSQVKERFKVVLDDFFPRYVKILSQEKYKGDIEEIRIEGHTSSEWLNAKTLEERYLGNAALSQARAFEVLKYCFALERIKGEQDWLIKVLRANGLSFAKPLDSEEHSRRVEFRTLTRSHQKMLKILDLSKEGHHHHHH	soluble
MSLSSAYQLVIFDWEGTIADTLGVILHTVATEAKMLGFGDIDPYQARKYVDLGLVQAVKKTLPNLTAGQQEDLLQAVQSAMISRPTEVRLIPGVLEFIQQLHQAKVDLAIATNKGHNSLIRALQATELDQLFKVTRSAGQVPAKPCPQMLEEIMEEFGRDPSSTLMIGDSTTDMEMAKRINVNAIGMDFYHQQEDALKAAGALAVFDDYKLLSAYLMLPEAEGHHHHHH	soluble
MSLSSEVVLMKPYEKLVERFNEMAAEFLSYFPTVKSVGNLESELDKRRFVILFRAMLRLRNEVKGYNEFDAEDLTIEEQRFADYQSKYLDMSNEFAITSEKEDAESILQDIDFELELVHRDIINVMYILALLQDLKPESSSYPKDRKAVLDTMDSNPELRSKIALIDNFIKLHIDGRQSNDLPADMESDLDKYIATQKAIAIEQVATEEGIDSTLLHEYISEYEYLGKPKNEIIKRAIDPLKLSFMDAQSKKKSLIDKMKDIIKLFSWNEGHHHHHH	soluble
MSLSSKKLGVILYGPPASGKDTVAQALSELDARYGQFARLKVGSGRTTRYRMGTAEQLHDLEAAGAAIYTNSRYGNTYVIDRPGMDSAFEAGVPVVHLGQIDGIRALVDGYTADWAVVLLWCSQEVTAQRSAGRGDSDTTARLAAWQATREDLDAHPDMRWDLTVDTEATAAEESARLIDQLLHARAGVTEGHHHHHH	soluble
MSLSSLGAPAISAASFLQDLIHRYGEGDSPTLQQLKALLNHLDVGVGRGNVTQHVQGHRNLSTCFSSGDLFTAHNFSEQSRIGSSELQEFCPTILQQLDSRACTSENQENEENEGHHHHHH	soluble
